Publication PMC7542365 (mBio, 2020)

Biological target: A/Anhui/1/2013 H7N9 NA, thrombin-digested (for crystals) (influenza A virus A/Anhui/1/2013 (H7N9))
Experiment: crystal structure

## A/Anhui/1/2013 H7N9 NA, thrombin-digested (for crystals) (domain or fragment)
  stoichiometry N: 4
